This note sets out measurements from US8242083B2, “Kinase substrates” (PerkinElmer Health Sciences, Inc., priority 2008, dated 2012).

Common to all, as to format: biochemical
One experiment deals with PDGFRa (Homo sapiens, UniProt P16234). The experiment in a line: TR-FRET kinase assay, PDGFRa. The following applies: Kinase Concentration 0.5 nM; 50 nM ULight-labeled substrate, 200 micromolar ATP, 2 hours. The protocol: (§1) TR-FRET kinase assays are performed under standardized conditions: various individual kinases are incubated with 50 nM of kinase substrate BRB1 labeled with the TR-FRET acceptor dye ULight (PerkinElmer) and 200 micromolar ATP in 10 μL of kinase assay buffer (50 mM HEPES pH7.5, 10 mM MgCl2, 3 mM MnCl2, 1 mM EGTA, 2 mM DTT and 0.01% Tween-20) for 2 hours at room temperature. Reactions are stopped with EDTA, and anti-phospho-tyrosine antibodies (clone PT66) labeled with the TR-FRET europium chelate donor dye are added to a final concentration of 2 nM in a final volume of 20 μL. The TR-FRET signal emitted at 665 nm is read one hour after the addition of antibodies using a TR-FRET plate reader such as the Envision® Multilabel Plate reader (PerkinElmer). The emitted signal at 665 nm is proportional to the extent of peptide phosphorylation, Control reactions indicative of background are performed excluding ATP from the reaction.
Chain of PDGFRa (P16234 24-1089, species assumed): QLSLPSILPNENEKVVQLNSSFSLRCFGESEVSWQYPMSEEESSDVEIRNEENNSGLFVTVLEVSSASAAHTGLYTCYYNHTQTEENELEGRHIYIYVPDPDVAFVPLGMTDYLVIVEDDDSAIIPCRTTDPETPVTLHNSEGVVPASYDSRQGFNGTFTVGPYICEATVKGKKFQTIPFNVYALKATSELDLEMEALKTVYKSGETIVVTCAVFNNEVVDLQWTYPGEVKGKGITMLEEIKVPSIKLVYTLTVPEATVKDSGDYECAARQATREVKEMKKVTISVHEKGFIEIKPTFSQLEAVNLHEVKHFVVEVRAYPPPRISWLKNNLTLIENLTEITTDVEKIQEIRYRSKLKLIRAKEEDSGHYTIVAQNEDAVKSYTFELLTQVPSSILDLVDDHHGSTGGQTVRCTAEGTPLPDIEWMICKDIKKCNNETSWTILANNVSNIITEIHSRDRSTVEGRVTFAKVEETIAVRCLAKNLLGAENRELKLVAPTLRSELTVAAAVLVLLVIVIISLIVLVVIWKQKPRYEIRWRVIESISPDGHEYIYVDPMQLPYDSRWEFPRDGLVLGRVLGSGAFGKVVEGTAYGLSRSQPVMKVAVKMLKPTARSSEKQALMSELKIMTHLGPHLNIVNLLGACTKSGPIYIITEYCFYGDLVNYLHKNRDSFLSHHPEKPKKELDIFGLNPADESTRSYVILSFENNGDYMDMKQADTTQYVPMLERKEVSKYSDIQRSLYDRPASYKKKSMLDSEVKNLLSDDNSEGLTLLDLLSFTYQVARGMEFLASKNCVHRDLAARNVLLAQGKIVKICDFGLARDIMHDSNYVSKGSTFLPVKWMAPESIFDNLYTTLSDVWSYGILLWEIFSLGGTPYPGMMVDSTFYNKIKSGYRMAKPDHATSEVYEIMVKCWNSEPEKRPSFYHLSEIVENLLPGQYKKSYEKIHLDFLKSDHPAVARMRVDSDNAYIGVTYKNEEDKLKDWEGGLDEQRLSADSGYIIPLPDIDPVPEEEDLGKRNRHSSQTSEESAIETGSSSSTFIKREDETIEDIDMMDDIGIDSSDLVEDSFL
(§2) Assay conditions are identical to those used described for FIG. 1.

Another experiment addresses T1, TXK (Homo sapiens, UniProt P42681).
T1 sequence (P42681 1-527): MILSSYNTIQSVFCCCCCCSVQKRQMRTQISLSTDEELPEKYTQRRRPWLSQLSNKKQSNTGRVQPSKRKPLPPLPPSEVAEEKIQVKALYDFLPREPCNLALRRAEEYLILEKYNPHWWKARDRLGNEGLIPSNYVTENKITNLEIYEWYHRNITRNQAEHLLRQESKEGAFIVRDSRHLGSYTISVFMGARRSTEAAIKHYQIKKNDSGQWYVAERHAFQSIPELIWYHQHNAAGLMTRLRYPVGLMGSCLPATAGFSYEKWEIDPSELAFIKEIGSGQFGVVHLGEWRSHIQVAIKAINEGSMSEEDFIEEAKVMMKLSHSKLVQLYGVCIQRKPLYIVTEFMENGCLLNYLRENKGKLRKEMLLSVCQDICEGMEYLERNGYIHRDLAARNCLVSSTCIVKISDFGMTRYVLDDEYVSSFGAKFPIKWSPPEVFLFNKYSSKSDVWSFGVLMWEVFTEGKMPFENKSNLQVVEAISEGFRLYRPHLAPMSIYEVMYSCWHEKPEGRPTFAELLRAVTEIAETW
The experiment in a line: TR-FRET kinase assay, TXK. The following applies: Kinase Concentration 3 nM; 50 nM ULight-labeled substrate, 200 micromolar ATP, 2 hours. As to the method:
as §1, §2
In general terms: In TR-FRET formats the signal depends on donor and acceptor labels being close together.

The target in a further experiment is FLT3 (Homo sapiens, UniProt P36888). Kind of experiment: TR-FRET kinase assay, FLT3. The following applies: Kinase Concentration 0.1 nM; 50 nM ULight-labeled substrate, 200 micromolar ATP, 2 hours. The protocol: as §1, §2
Another experiment concerns the target FYN (Homo sapiens, UniProt P06241). The experiment in a line: TR-FRET kinase assay, FYN. The settings on record: Kinase Concentration 0.25 nM; 50 nM ULight-labeled substrate, 200 micromolar ATP, 2 hours. As to the method: as §1, §2
The target in the next experiment is SRM (Homo sapiens, UniProt Q9H3Y6). Kind of experiment: TR-FRET kinase assay, SRM. The following applies: Kinase Concentration 0.5 nM; 50 nM ULight-labeled substrate, 200 micromolar ATP, 2 hours. As to the method: as §1, §2
Chain of SRM (Q9H3Y6 whole entry): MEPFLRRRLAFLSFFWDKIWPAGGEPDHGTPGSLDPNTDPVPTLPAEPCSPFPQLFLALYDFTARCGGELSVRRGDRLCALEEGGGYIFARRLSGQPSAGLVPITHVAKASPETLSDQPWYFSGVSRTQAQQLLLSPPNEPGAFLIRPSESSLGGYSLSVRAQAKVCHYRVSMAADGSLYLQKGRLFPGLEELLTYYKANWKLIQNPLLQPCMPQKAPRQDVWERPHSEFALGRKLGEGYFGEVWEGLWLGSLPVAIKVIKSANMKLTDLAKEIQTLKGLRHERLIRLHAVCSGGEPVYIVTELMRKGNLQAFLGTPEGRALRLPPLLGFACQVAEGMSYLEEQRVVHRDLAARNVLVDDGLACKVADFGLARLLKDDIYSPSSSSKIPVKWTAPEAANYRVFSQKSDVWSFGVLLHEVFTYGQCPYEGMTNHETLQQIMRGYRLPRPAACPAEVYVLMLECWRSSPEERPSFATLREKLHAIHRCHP
The target in another experiment is YES (Homo sapiens, UniProt P07947). The experiment in a line: TR-FRET kinase assay, YES. The following applies: Kinase Concentration 0.25 nM; 50 nM ULight-labeled substrate, 200 micromolar ATP, 2 hours. The protocol:
as §1, §2

Another experiment concerns the target T2, EphA6 (Homo sapiens, UniProt Q9UF33).
T2 sequence (Q9UF33 23-1036): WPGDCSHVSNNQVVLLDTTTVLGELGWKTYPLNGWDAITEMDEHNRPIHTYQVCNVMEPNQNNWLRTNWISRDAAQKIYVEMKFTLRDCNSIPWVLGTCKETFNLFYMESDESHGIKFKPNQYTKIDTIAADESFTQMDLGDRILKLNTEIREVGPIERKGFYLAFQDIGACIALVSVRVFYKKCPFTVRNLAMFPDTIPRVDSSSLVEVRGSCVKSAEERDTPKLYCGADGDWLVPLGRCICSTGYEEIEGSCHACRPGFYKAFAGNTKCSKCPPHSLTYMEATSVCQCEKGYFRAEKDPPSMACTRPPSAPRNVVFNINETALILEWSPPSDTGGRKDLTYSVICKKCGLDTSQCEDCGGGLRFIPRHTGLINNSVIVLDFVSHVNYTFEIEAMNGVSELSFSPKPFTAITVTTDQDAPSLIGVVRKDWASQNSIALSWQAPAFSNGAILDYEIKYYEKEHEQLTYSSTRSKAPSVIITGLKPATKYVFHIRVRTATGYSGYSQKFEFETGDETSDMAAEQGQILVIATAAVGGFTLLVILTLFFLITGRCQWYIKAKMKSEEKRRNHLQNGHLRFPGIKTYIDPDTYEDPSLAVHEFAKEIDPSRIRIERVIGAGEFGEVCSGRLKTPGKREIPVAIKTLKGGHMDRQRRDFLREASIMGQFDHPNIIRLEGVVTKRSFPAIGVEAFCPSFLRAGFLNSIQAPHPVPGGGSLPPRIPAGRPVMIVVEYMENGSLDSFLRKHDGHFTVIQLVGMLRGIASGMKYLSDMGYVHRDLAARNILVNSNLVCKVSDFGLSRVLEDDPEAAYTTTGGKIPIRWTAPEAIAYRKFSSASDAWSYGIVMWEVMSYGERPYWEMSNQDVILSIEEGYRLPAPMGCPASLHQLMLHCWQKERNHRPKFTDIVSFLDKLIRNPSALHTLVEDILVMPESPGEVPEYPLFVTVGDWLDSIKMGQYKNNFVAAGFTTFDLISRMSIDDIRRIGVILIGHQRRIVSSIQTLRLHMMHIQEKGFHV
Kind of experiment: TR-FRET kinase assay, EphA6. The settings on record: Kinase Concentration 0.5 nM; 50 nM ULight-labeled substrate, 200 micromolar ATP, 2 hours. The protocol:
as §1, §2

For a further experiment, the target named is MET (Homo sapiens, UniProt P08581). The experiment in a line: TR-FRET kinase assay, MET. The following applies: Kinase Concentration 0.5 nM; 50 nM ULight-labeled substrate, 200 micromolar ATP, 2 hours. As to the method: as §1, §2
Another experiment concerns the target FLT4 (Homo sapiens, UniProt P35916). The experiment in a line: TR-FRET kinase assay, FLT4. The following applies: Kinase Concentration 0.25 nM; 50 nM ULight-labeled substrate, 200 micromolar ATP, 2 hours. The protocol:
as §1, §2

Another experiment addresses ABL (Homo sapiens, UniProt P00519). Kind of experiment: TR-FRET kinase assay, ABL. The settings on record: Kinase Concentration 0.25 nM; 50 nM ULight-labeled substrate, 200 micromolar ATP, 2 hours. As to the method: as §1, §2

Chain of ABL (P00519 whole entry, species assumed): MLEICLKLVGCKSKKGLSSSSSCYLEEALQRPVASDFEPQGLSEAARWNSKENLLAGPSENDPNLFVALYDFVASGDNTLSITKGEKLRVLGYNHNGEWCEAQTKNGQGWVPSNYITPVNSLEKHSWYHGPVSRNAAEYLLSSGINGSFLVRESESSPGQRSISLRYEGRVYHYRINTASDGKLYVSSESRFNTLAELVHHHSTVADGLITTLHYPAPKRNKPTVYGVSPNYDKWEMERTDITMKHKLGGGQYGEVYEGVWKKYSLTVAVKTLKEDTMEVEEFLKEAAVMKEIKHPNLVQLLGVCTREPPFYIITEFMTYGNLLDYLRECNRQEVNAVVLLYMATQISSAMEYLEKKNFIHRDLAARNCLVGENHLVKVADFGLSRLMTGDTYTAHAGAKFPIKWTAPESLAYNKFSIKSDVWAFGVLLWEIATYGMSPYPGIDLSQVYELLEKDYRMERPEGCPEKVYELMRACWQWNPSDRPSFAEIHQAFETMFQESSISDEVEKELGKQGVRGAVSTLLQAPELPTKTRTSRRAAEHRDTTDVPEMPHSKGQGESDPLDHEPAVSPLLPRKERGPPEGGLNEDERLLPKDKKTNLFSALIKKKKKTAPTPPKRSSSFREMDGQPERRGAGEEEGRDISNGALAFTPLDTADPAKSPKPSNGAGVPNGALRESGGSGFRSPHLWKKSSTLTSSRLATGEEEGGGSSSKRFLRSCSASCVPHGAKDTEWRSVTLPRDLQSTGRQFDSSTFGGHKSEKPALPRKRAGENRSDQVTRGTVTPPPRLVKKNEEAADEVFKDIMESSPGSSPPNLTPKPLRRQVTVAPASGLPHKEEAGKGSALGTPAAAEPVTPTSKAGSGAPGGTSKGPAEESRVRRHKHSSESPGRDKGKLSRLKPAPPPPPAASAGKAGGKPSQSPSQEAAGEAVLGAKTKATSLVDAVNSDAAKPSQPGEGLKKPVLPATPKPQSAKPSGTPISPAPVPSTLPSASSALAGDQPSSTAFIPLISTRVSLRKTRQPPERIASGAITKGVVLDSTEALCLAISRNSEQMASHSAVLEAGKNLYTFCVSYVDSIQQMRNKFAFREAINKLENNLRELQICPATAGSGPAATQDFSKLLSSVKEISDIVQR
Chain of FLT4 (P35916 25-1363, species assumed): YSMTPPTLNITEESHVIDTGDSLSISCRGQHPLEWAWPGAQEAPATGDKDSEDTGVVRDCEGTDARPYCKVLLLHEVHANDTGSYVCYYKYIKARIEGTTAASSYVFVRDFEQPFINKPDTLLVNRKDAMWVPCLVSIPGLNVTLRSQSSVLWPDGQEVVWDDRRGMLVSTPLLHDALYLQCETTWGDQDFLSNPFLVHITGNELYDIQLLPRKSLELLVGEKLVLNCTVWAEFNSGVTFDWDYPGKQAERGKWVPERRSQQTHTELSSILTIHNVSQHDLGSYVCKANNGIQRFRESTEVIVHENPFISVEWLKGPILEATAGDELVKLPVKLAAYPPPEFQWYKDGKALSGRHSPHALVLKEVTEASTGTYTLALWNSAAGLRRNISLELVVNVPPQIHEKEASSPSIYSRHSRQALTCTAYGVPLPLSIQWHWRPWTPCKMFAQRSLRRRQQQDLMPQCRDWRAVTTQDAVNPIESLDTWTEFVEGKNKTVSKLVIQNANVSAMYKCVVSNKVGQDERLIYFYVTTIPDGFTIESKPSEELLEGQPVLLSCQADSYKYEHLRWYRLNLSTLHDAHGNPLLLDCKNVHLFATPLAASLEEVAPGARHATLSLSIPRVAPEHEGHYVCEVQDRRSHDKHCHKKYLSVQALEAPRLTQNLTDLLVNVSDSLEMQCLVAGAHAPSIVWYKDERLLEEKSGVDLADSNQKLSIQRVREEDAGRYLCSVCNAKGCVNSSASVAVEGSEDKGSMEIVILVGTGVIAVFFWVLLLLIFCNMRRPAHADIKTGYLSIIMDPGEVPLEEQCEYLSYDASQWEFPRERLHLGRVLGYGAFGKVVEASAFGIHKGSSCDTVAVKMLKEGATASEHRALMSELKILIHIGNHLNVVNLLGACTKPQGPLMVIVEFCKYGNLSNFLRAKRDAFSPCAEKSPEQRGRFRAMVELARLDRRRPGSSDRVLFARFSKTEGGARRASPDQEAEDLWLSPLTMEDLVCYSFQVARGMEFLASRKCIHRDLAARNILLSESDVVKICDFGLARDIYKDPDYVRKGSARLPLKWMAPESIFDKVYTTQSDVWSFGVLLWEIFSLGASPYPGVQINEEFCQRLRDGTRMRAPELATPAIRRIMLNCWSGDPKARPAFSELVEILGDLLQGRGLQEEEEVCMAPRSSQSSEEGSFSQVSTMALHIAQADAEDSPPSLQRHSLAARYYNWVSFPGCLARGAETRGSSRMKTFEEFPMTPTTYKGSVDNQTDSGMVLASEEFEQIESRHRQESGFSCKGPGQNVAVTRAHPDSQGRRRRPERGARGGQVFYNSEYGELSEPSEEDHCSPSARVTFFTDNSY
Chain of FYN (P06241 whole entry, species assumed): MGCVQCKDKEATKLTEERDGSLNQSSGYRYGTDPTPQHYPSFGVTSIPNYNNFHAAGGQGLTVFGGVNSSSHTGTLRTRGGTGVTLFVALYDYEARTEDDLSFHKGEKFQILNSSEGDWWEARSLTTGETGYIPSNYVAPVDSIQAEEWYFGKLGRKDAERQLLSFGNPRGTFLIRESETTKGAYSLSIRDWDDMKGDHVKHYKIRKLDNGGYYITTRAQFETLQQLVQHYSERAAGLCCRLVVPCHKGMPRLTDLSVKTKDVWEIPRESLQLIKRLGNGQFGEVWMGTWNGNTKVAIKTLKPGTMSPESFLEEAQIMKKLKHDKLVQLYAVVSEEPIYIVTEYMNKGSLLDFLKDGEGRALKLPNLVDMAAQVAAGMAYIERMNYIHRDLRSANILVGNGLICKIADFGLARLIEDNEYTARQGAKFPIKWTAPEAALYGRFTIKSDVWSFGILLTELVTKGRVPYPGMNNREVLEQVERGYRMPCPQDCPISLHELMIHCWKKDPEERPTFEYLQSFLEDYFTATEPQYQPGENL
Chain of YES (P07947 whole entry, species assumed): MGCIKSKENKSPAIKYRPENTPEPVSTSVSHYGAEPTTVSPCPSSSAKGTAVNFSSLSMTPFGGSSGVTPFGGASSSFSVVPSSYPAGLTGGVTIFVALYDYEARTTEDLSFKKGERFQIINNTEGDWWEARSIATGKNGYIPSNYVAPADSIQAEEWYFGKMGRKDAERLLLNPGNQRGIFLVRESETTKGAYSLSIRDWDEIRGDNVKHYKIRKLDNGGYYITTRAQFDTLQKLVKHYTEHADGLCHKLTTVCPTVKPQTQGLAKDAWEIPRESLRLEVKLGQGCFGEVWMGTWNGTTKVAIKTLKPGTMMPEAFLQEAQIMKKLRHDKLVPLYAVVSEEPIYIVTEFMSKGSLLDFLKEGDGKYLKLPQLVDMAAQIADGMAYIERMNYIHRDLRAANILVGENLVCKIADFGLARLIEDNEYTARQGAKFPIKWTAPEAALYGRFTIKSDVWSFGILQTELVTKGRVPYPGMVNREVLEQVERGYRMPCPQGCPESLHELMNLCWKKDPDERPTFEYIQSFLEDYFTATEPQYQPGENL

For the sequence “C AYE AYE AYE K EYA EYA EYA K AYA EYE R (CAYEAYEAYEKEYAEYAEYAKAYAEYER; tyrosine kinase substrate peptide) [BRB1]”, the “Signal to Noise ratio with BRB1 Peptide” value is given as 8.0 with PDGFRa; 5.9 in the experiment with TXK; 25.9 with FLT3; 25.9 with FYN; 32.5 in the experiment with SRM; 28.0 with YES. In addition, the “Signal to Noise ratio with BRB1 Peptide” value with EphA6 amounted to 5.4; with MET, 24.2; with FLT4 it was 20.0; with ABL, 4.1.
